Data: patent publication US20210388087A1 (Chugai, published 2021)

T1: Human CD3eg linker (human)
T1 construct: Single chain: epsilon and gamma subunits of human CD3 joined by a 29-mer linker, Flag-tag at the C-terminus; also called recombinant human CD3
T1 chain: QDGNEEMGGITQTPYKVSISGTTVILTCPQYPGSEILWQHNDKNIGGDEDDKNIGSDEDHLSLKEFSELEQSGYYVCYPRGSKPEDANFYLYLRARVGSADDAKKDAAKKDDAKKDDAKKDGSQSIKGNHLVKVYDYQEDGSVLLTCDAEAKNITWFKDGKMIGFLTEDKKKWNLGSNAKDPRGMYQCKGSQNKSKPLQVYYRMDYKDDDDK


Target: T1, Human CD3eg linker
Experiment: Biacore SPR, vs template H183/L072

fold change of affinity [fold]	Binder
0.5	H183/L072 VH N53E (antibody, name in Kabat numbering, V domains shown) VH: QVQLVESGGGLVQPGRSLRLSCAASGFTFSNAWMHWVRQAPGKGLEWVAQIKDKGEAYAAYYAPSVKGRFTISRDDSKNSIYLQMNSLKTEDTAVYYCHYVHYASASTVLPAFGVDAWGQGTTVTVSS VL: DIVMTQSPLSLPVTPGEPASISCQASQELVHMNRNTYLHWYQQKPGQAPRLLIYKVSNRFPGVPDRFSGSGSGTDFTLKISRVEAEDVGVYYCAQGTSVPFTFGQGTKLEIK
0.5	H183/L072 VH N53Q (antibody, name in Kabat numbering, V domains shown) VH: QVQLVESGGGLVQPGRSLRLSCAASGFTFSNAWMHWVRQAPGKGLEWVAQIKDKGQAYAAYYAPSVKGRFTISRDDSKNSIYLQMNSLKTEDTAVYYCHYVHYASASTVLPAFGVDAWGQGTTVTVSS VL: DIVMTQSPLSLPVTPGEPASISCQASQELVHMNRNTYLHWYQQKPGQAPRLLIYKVSNRFPGVPDRFSGSGSGTDFTLKISRVEAEDVGVYYCAQGTSVPFTFGQGTKLEIK
0.8	H183/L072 VH N53F (antibody, name in Kabat numbering, V domains shown) VH: QVQLVESGGGLVQPGRSLRLSCAASGFTFSNAWMHWVRQAPGKGLEWVAQIKDKGFAYAAYYAPSVKGRFTISRDDSKNSIYLQMNSLKTEDTAVYYCHYVHYASASTVLPAFGVDAWGQGTTVTVSS VL: DIVMTQSPLSLPVTPGEPASISCQASQELVHMNRNTYLHWYQQKPGQAPRLLIYKVSNRFPGVPDRFSGSGSGTDFTLKISRVEAEDVGVYYCAQGTSVPFTFGQGTKLEIK
0	H183/L072 VH N53P (antibody, name in Kabat numbering, V domains shown) VH: QVQLVESGGGLVQPGRSLRLSCAASGFTFSNAWMHWVRQAPGKGLEWVAQIKDKGPAYAAYYAPSVKGRFTISRDDSKNSIYLQMNSLKTEDTAVYYCHYVHYASASTVLPAFGVDAWGQGTTVTVSS VL: DIVMTQSPLSLPVTPGEPASISCQASQELVHMNRNTYLHWYQQKPGQAPRLLIYKVSNRFPGVPDRFSGSGSGTDFTLKISRVEAEDVGVYYCAQGTSVPFTFGQGTKLEIK
0.6	H183/L072 VH N53L (antibody, name in Kabat numbering, V domains shown) VH: QVQLVESGGGLVQPGRSLRLSCAASGFTFSNAWMHWVRQAPGKGLEWVAQIKDKGLAYAAYYAPSVKGRFTISRDDSKNSIYLQMNSLKTEDTAVYYCHYVHYASASTVLPAFGVDAWGQGTTVTVSS VL: DIVMTQSPLSLPVTPGEPASISCQASQELVHMNRNTYLHWYQQKPGQAPRLLIYKVSNRFPGVPDRFSGSGSGTDFTLKISRVEAEDVGVYYCAQGTSVPFTFGQGTKLEIK

Second part, the binder before the results:

Binder	fold change of affinity [fold]
H183/L072 VH N53V (antibody, name in Kabat numbering, V domains shown) VH: QVQLVESGGGLVQPGRSLRLSCAASGFTFSNAWMHWVRQAPGKGLEWVAQIKDKGVAYAAYYAPSVKGRFTISRDDSKNSIYLQMNSLKTEDTAVYYCHYVHYASASTVLPAFGVDAWGQGTTVTVSS VL: DIVMTQSPLSLPVTPGEPASISCQASQELVHMNRNTYLHWYQQKPGQAPRLLIYKVSNRFPGVPDRFSGSGSGTDFTLKISRVEAEDVGVYYCAQGTSVPFTFGQGTKLEIK	0.5
H183/L072 VH N53W (antibody, name in Kabat numbering, V domains shown) VH: QVQLVESGGGLVQPGRSLRLSCAASGFTFSNAWMHWVRQAPGKGLEWVAQIKDKGWAYAAYYAPSVKGRFTISRDDSKNSIYLQMNSLKTEDTAVYYCHYVHYASASTVLPAFGVDAWGQGTTVTVSS VL: DIVMTQSPLSLPVTPGEPASISCQASQELVHMNRNTYLHWYQQKPGQAPRLLIYKVSNRFPGVPDRFSGSGSGTDFTLKISRVEAEDVGVYYCAQGTSVPFTFGQGTKLEIK	1.2
H183/L072 VH N53S (antibody, name in Kabat numbering, V domains shown) VH: QVQLVESGGGLVQPGRSLRLSCAASGFTFSNAWMHWVRQAPGKGLEWVAQIKDKGSAYAAYYAPSVKGRFTISRDDSKNSIYLQMNSLKTEDTAVYYCHYVHYASASTVLPAFGVDAWGQGTTVTVSS VL: DIVMTQSPLSLPVTPGEPASISCQASQELVHMNRNTYLHWYQQKPGQAPRLLIYKVSNRFPGVPDRFSGSGSGTDFTLKISRVEAEDVGVYYCAQGTSVPFTFGQGTKLEIK	0.8
H183/L072 VH N53I (antibody, name in Kabat numbering, V domains shown) VH: QVQLVESGGGLVQPGRSLRLSCAASGFTFSNAWMHWVRQAPGKGLEWVAQIKDKGIAYAAYYAPSVKGRFTISRDDSKNSIYLQMNSLKTEDTAVYYCHYVHYASASTVLPAFGVDAWGQGTTVTVSS VL: DIVMTQSPLSLPVTPGEPASISCQASQELVHMNRNTYLHWYQQKPGQAPRLLIYKVSNRFPGVPDRFSGSGSGTDFTLKISRVEAEDVGVYYCAQGTSVPFTFGQGTKLEIK	0.4
H183/L072 VH N53G (antibody, name in Kabat numbering, V domains shown) VH: QVQLVESGGGLVQPGRSLRLSCAASGFTFSNAWMHWVRQAPGKGLEWVAQIKDKGGAYAAYYAPSVKGRFTISRDDSKNSIYLQMNSLKTEDTAVYYCHYVHYASASTVLPAFGVDAWGQGTTVTVSS VL: DIVMTQSPLSLPVTPGEPASISCQASQELVHMNRNTYLHWYQQKPGQAPRLLIYKVSNRFPGVPDRFSGSGSGTDFTLKISRVEAEDVGVYYCAQGTSVPFTFGQGTKLEIK	0.4
H183/L072 VH N53K (antibody, name in Kabat numbering, V domains shown) VH: QVQLVESGGGLVQPGRSLRLSCAASGFTFSNAWMHWVRQAPGKGLEWVAQIKDKGKAYAAYYAPSVKGRFTISRDDSKNSIYLQMNSLKTEDTAVYYCHYVHYASASTVLPAFGVDAWGQGTTVTVSS VL: DIVMTQSPLSLPVTPGEPASISCQASQELVHMNRNTYLHWYQQKPGQAPRLLIYKVSNRFPGVPDRFSGSGSGTDFTLKISRVEAEDVGVYYCAQGTSVPFTFGQGTKLEIK	0.6
H183/L072 VH N53M (antibody, name in Kabat numbering, V domains shown) VH: QVQLVESGGGLVQPGRSLRLSCAASGFTFSNAWMHWVRQAPGKGLEWVAQIKDKGMAYAAYYAPSVKGRFTISRDDSKNSIYLQMNSLKTEDTAVYYCHYVHYASASTVLPAFGVDAWGQGTTVTVSS VL: DIVMTQSPLSLPVTPGEPASISCQASQELVHMNRNTYLHWYQQKPGQAPRLLIYKVSNRFPGVPDRFSGSGSGTDFTLKISRVEAEDVGVYYCAQGTSVPFTFGQGTKLEIK	0.5
H183/L072 VH N53H (antibody, name in Kabat numbering, V domains shown) VH: QVQLVESGGGLVQPGRSLRLSCAASGFTFSNAWMHWVRQAPGKGLEWVAQIKDKGHAYAAYYAPSVKGRFTISRDDSKNSIYLQMNSLKTEDTAVYYCHYVHYASASTVLPAFGVDAWGQGTTVTVSS VL: DIVMTQSPLSLPVTPGEPASISCQASQELVHMNRNTYLHWYQQKPGQAPRLLIYKVSNRFPGVPDRFSGSGSGTDFTLKISRVEAEDVGVYYCAQGTSVPFTFGQGTKLEIK	1.1
H183/L072 VH N53R (antibody, name in Kabat numbering, V domains shown) VH: QVQLVESGGGLVQPGRSLRLSCAASGFTFSNAWMHWVRQAPGKGLEWVAQIKDKGRAYAAYYAPSVKGRFTISRDDSKNSIYLQMNSLKTEDTAVYYCHYVHYASASTVLPAFGVDAWGQGTTVTVSS VL: DIVMTQSPLSLPVTPGEPASISCQASQELVHMNRNTYLHWYQQKPGQAPRLLIYKVSNRFPGVPDRFSGSGSGTDFTLKISRVEAEDVGVYYCAQGTSVPFTFGQGTKLEIK	0.8
H183/L072 VH N53T (antibody, name in Kabat numbering, V domains shown) VH: QVQLVESGGGLVQPGRSLRLSCAASGFTFSNAWMHWVRQAPGKGLEWVAQIKDKGTAYAAYYAPSVKGRFTISRDDSKNSIYLQMNSLKTEDTAVYYCHYVHYASASTVLPAFGVDAWGQGTTVTVSS VL: DIVMTQSPLSLPVTPGEPASISCQASQELVHMNRNTYLHWYQQKPGQAPRLLIYKVSNRFPGVPDRFSGSGSGTDFTLKISRVEAEDVGVYYCAQGTSVPFTFGQGTKLEIK	0.6
